# Data as given in patent US20190015518A1, “DRUG DELIVERY COMPOSITIONS AND METHODS” (priority 2016, published 2019).
# Assays:
# [1] = system: A2058 (human melanoma) cells; assay: Anti-proliferative activity (Resazurin Blue, 72 hours); assay type: cell-based; settings: mean ± S.E.M., cisplatin basis
# Procedure: MDA-1986 (human head and neck squamous cell carcinoma), 4T1.2-neu (murine breast cancer cells), and A2058 (human melanoma) cells were maintained in Dulbecco's Modified Eagle Medium (DMEM, Corning, Manassas, Va.) with 4.5 g/L glucose, 4.5 g/L L-glutamine, and 10% fetal bovine serum in a humidified incubator at 37° C. and 5% CO2. Cells were seeded into 96-well plates (3,000 cells/well in 90 μL media) and allowed to attach overnight. […] Resazurin Blue (Acros Organics, Geel, Belgium) in PBS was added to each well (5-μM final concentration; 10-μL addition) and incubated at 37° C. for 4 hours. Fluorescence (λex 550 nm, λem 605 nm) was quantified with a SpectraMax Gemini XS plate-reader (Molecular Devices, Sunnyvale, Calif.). The relative growth of cells incubated with each compound concentration was normalized to vehicle-treated controls (100% proliferation). Data from at least three separate experiments performed in duplicate was analyzed using non-linear regression (GraphPad Prism 5.0) to generate IC50 values.
# [2] = Pharmacokinetics in three tumor-bearing dogs (three-compartmental model); assay type: in vivo, dog; settings: 10 mg/m2
# Procedure: An open label, multiple dose/dosage phase I/II trial of 75HA-Lys-Pt was conducted at the University of Missouri Veterinary Medical Teaching Hospital (MU-VMTH). The clinical trial protocol was approved by the University of Missouri ACUC. Dogs of any age, sex, or breed presented to the MU-VMTH oncology service with the a histological diagnosis of anal sac carcinoma, oral squamous cell carcinoma, oral melanoma, nasal carcinoma, or digital squamous cell carcinoma with a performance score of 0 or 1 (0: normal activity; 1: restricted activity; 2: compromised activity; 3: disabled; 4: dead) and without comorbid conditions that would limit life expectancy to less than nine weeks were offered enrollment in the trial.
# Following complete staging, client consent was obtained to enroll each dog in the study. Once enrolled in the study, longest tumor diameters of all target lesions were recorded. An indwelling jugular catheter was placed to facilitate collection of blood samples. Dogs received 10 to 30 mg/m^2 intra-tumoral injections through 1 to 3 pre-placed 22-ga spinal needles once every three weeks for up to four planned doses. Dogs were sedated or anesthetized for each treatment, and a 2-mL blood sample was collected from the jugular catheter at 0.5, 1, 2, 4, and 24 hours following drug administration. Blood samples were spun, plasma was collected and frozen within two hours. A CBC and renal profile with urinalysis were conducted prior to and one week after each treatment. Some dogs experiencing apparent adverse effects of drug administration had complete biomedical profiles performed. Tumor measurements were collected three weeks following each administration to assess response.
# Serum samples of 3 dogs were diluted 20-fold in 1% HNO3, and vortexed prior to inductively coupled plasma mass spectrometry (ICP-MS) analysis. The platinum concentration of serum was determined using an Agilent 7500i ICP-MS. A calibration curve was generated from 1 to 50 ppb platinum (acceptable criterion R^2>0.995) and 50-ppb bismuth was used as an internal standard. […] The pharmacokinetics were modeled using a SAAM II three-compartmental model.
# The serum pharmacokinetics data was modeled using a three-compartmental model with an injection site compartment (q3), a serum compartment (q1), and a tissue compartment (q2). […] Three transfer constants, k(1,3), k(1,2) and k(2,1), and one loss constant, k(0,1), were assigned to the model. The k(1,3) defined the drug absorption process allowing the transfer of HA-Pt from the injection site compartment to the serum compartment. A reversible k(3,1) was not necessary as a sink condition was assumed. Due to the concentration gradient between the injection site and the central serum compartments, drug redistribution back to the injection site was not expected. […] Drug transfer and equilibrium between plasma and tissue compartments were represented by k(1,2) and k(2,1). Post-injection drug diffused from the tissue at the injection site to the blood capillaries and the lymphatic vessels. Eventually the drug molecules entered the systemic circulation and distributed into organs. It is likely that the highly perfused organs, such as liver and kidneys, established equilibrium sooner than organs with low blood flow.
substance,measurement,setting,value
HA-cis-[Pt(NH3)2(N^α-Acetyl-L-Lysine)] [75HA-Lys-Pt],IC50,[1],69.8 ± 7 µM
same,AUC,[2]; Dog 1 (28.7 kg),4000 ng·h/mL
same,Cmax,[2]; Dog 1 (28.7 kg),174 ng/mL
same,Tmax,[2]; Dog 1 (28.7 kg),60 min
same,Vss,[2]; Dog 1 (28.7 kg),2 L/kg
same,AUC,[2]; Dog 2 (25.2 kg),900 ng·h/mL
same,Cmax,[2]; Dog 2 (25.2 kg),155 ng/mL
same,Tmax,[2]; Dog 2 (25.2 kg),30 min
same,Vss,[2]; Dog 2 (25.2 kg),33.4 L/kg
same,AUC,[2]; Dog 3 (6.5 kg),2200 ng·h/mL
same,Cle,[2]; Dog 3 (6.5 kg),1.53 mL/min/kg
same,Cmax,[2]; Dog 3 (6.5 kg),128 ng/mL
same,Tmax,[2]; Dog 3 (6.5 kg),30 min
same,Vss,[2]; Dog 3 (6.5 kg),8.9 L/kg
